Assay results from IntAct's records for PubMed 11731480.

B1: Histone acetyltransferase SAS2 (Saccharomyces cerevisiae), P40963 (parent)
chain: MARSLSQSLTATTQKLKGKKNGGKGKNKPSAKIKKTQKEMLYGILNERNIRQIQFGLNKKFSTWYGSAVYFDPETKRLGCSETKGQLSSVSNSQYWLDTLFVCEYCFKYTDDQTRFVGHVASCPFQYRVPGKIKYKSPEYTIRRVKGSKYQLFCQCLCLFTKLYLDNKSMYFKVDHYEFYIVYETGSTKPMGFFSKDLVSYQQNNLACILIFPPYQRRGLGLLLIEFSYKLSQLEGVISGPEVPLSPFGLIGYLKYWSQILCWHLIEGDLAHYDKVTLEDLSIVTGMRVNDVILTLKHLNCIGENNQIYLQSLNSWLKLHGTKRNWFKLKDEYLLIDD
partner: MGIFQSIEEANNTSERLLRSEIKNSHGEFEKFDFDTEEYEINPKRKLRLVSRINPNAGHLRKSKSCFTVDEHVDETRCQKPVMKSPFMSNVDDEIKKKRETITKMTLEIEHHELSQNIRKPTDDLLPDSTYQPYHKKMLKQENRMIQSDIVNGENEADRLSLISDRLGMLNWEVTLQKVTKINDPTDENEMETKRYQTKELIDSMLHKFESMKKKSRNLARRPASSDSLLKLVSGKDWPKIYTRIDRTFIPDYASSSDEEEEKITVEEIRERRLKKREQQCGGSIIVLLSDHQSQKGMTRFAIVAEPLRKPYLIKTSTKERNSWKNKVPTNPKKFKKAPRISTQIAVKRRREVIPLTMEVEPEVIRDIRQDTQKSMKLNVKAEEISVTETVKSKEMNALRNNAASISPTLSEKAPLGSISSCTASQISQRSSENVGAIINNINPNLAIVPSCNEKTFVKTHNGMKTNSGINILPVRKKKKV
B2: Histone acetyltransferase SAS2 (Saccharomyces cerevisiae), P40963 (parent)
chain: B1 chain

Variants of: B1
Conditions: with sas4_yeast SAS4, Q04003

effect of a mutation on the interaction	Variant
decreasing interaction	MARSLSQSLTATTQKLKGKKNGGKGKNKPSAKIKKTQKEMLYGILNERNIRQIQFGLNKKFSTWYGSAVYFDPETKRLGCSETKGQLSSVSNSQYWLDTLFVCEYCFKYTDDQTRFVGHVASCPFQYRVPGKIKYKSPEYTIRRVKGSKYQLFCQCLCLFTKLYLDNKSMYFKVDHYEFYIVYETGSTKPMGFFSKDLVSYQQNNLACILIFAVYQRRGLGLLLIEFSYKLSQLEGVISGPEVPLSPFGLIGYLKYWSQILCWHLIEGDLAHYDKVTLEDLSIVTGMRVNDVILTLKHLNCIGENNQIYLQSLNSWLKLHGTKRNWFKLKDEYLLIDD [P213A;P214V]
decreasing interaction	MARSLSQSLTATTQKLKGKKNGGKGKNKPSAKIKKTQKEMLYGILNERNIRQIQFGLNKKFSTWYGSAVYFDPETKRLGCSETKGQLSSVSNSQYWLDTLFVCEYLFKYTDDQTRFVGHVASCPFQYRVPGKIKYKSPEYTIRRVKGSKYQLFCQCLCLFTKLYLDNKSMYFKVDHYEFYIVYETGSTKPMGFFSKDLVSYQQNNLACILIFPPYQRRGLGLLLIEFSYKLSQLEGVISGPEVPLSPFGLIGYLKYWSQILCWHLIEGDLAHYDKVTLEDLSIVTGMRVNDVILTLKHLNCIGENNQIYLQSLNSWLKLHGTKRNWFKLKDEYLLIDD [C106L]

Variants of: B2
Conditions: with caf1a_yeast RLF2, Q12495
Sequence of caf1a_yeast RLF2, Q12495 (Q12495 whole entry): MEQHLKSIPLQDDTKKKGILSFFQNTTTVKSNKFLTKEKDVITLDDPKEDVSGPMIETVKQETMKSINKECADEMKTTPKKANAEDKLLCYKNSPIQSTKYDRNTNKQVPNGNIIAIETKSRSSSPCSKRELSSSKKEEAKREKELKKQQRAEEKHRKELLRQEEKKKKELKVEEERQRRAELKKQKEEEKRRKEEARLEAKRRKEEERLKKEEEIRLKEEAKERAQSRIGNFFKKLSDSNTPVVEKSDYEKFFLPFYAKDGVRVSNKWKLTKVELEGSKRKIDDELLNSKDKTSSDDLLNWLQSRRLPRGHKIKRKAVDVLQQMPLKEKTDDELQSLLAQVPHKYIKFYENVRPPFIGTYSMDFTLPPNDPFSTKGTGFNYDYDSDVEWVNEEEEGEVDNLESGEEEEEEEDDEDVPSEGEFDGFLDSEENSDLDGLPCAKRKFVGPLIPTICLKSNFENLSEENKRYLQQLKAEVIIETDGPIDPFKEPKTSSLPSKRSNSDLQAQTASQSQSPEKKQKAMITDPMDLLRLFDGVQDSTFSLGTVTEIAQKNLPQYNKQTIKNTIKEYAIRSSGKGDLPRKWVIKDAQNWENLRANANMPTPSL

effect of a mutation on the interaction	Variant
decreasing interaction	MARSLSQSLTATTQKLKGKKNGGKGKNKPSAKIKKTQKEMLYGILNERNIRQIQFGLNKKFSTWYGSAVYFDPETKRLGCSETKGQLSSVSNSQYWLDTLFVCEYLFKYTDDQTRFVGHVASCPFQYRVPGKIKYKSPEYTIRRVKGSKYQLFCQCLCLFTKLYLDNKSMYFKVDHYEFYIVYETGSTKPMGFFSKDLVSYQQNNLACILIFPPYQRRGLGLLLIEFSYKLSQLEGVISGPEVPLSPFGLIGYLKYWSQILCWHLIEGDLAHYDKVTLEDLSIVTGMRVNDVILTLKHLNCIGENNQIYLQSLNSWLKLHGTKRNWFKLKDEYLLIDD [C106L]
decreasing interaction	MARSLSQSLTATTQKLKGKKNGGKGKNKPSAKIKKTQKEMLYGILNERNIRQIQFGLNKKFSTWYGSAVYFDPETKRLGCSETKGQLSSVSNSQYWLDTLFVCEYCFKYTDDQTRFVGHVASCPFQYRVPGKIKYKSPEYTIRRVKGSKYQLFCQCLCLFTKLYLDNKSMYFKVDHYEFYIVYETGSTKPMGFFSKDLVSYQQNNLACILIFAVYQRRGLGLLLIEFSYKLSQLEGVISGPEVPLSPFGLIGYLKYWSQILCWHLIEGDLAHYDKVTLEDLSIVTGMRVNDVILTLKHLNCIGENNQIYLQSLNSWLKLHGTKRNWFKLKDEYLLIDD [P213A;P214V]
